From patent US20230122991A1, “GROWTH FACTOR FORMULATION FOR CONDITION ASSOCIATED WITH OTIC EVENT” (OTONOMY, INC., priority 2020, published 2023)

Tested on: adult male rats bilaterally exposed to noise
Assay: Noise-induced cochlear synaptopathy, ABR thresholds and wave I amplitude (Example G)
Type: in vivo, rat
Procedure: Animals: Male Sprague-Dawley rats (5-6 months of age) were used for efficacy studies and females (2-3 months) were used for pharmacokinetic studies.
Formulations: Human recombinant BDNF was suspended in the thermoreversible polymer Poloxamer 407 (16%) to reach a range of BDNF concentrations.
Intratympanic (IT) injection: Formulations were administered under anesthesia as a single IT injection (20 μl) through the tympanic membrane into the middle ear, targeting the round window membrane (RWM).
Noise-induced cochlear synaptopathy: Rats (n=44 per treatment group) received a single acoustic trauma (105 dB SPL, 8-16 kHz, 1 h) under anesthesia. 24 hours later (Day 1) animals received a single bilateral IT injection of the treatment regimens. Auditory function (ABR and ABR wave 1 amplitude) was monitored at day 1 and then every 7 days for 28 days. At termination (Day 28), cochleae were collected and assessed for evidence of cochlear synaptopathy (IHC synaptic puncta counts).
Intratympanic BDNF improves Auditory Brainstem Response (ABR) thresholds and wave I amplitudes in adult rats. The Auditory Brainstem Response (ABR) is an objective test that measures hearing sensitivity and can identify abnormalities in the peripheral auditory system and the auditory pathway up through the brainstem. […]

B1: brain-derived neurotrophic factor (protein, UniProt P23560 129-247, looked up)
Neurotrophic factor BDNF: HSDPARRGELSVCDSISEWVTAADKKTAVDMSGGTVTVLEKVPVSKGQLKQYFYETKCNPMGYTKEGCRGIDKRHWNSQCRTTQSYVRALTMDSKKRIGWRFIRIDTSCVCTLTIKRGR
modifications: Neurotrophic factor BDNF in 16% poloxamer 407 gel
notes: Human recombinant BDNF
0.05 mg/ml BDNF in P407, intratympanic injection 24 hours after noise exposure, ABR at days 1, 7, 14, and 28, vs P407 vehicle alone, FIG. 12A
  ABR threshold shift: more rapid recovery of initial threshold shifts and overall reduced levels of hearing loss
BDNF in P407 vs vehicle treatment following noise exposure, across many frequencies, FIG. 12C
  ABR wave I amplitudes: Significant improvements
